Data on three molecules can be found in patent US20250215058A1 (CHILDREN S MEDICAL CENTER, published 2025).

The labels stand for the following.
B1: HLA-C (full length, FLAG-tagged, expressed in HEK293 cells) (receptor)
MHC heavy: CSHSMRYFDTAVSRPGRGEPRFISVGYVDDTQFVRFDSDAASPRGEPRAPWVEQEGPEYWDRETQKYKRQAQADRVSLRNLRGYYNQSEDGSHTLQRMSGCDLGPDGRLLRGYDQSAYDGKDYIALNEDLRSWTAADTAAQITQRKLEAARAAEQLRAYLEGTCVEWLRRYLENGKETLQRAEPPKTHVTHHPLSDHEATLRCWALGFYPAEITLTWQRDGEDQTQDTELVETRPAGDGTFQKWAAVVVPSGQEQRYTCHMQHEGLQEPLTLSWEPSSQPTIPIMGIVAGLAVLVVLAVLGAVVTAMMCRRKSSGGKGGSCSQAACSNSAQGSDESLITCKAEFGSGSGS
notes: also called HLA-C alone; not shown: triple-FLAG tag
B2: HLA-B (full length, FLAG-tagged, expressed in HEK293 cells) (receptor)
MHC heavy: GSHSMRYFYTSVSRPGRGEPRFISVGYVDDTQFVRFDSDAASPREEPRAPWIEQEGPEYWDRNTQIYKAQAQTDRESLRNLRGYYNQSEAGSHTLQSMYGCDVGPDGRLLRGHDQYAYDGKDYIALNEDLRSWTAADTAAQITQRKWEAAREAEQRRAYLEGECVEWLRRYLENGKDKLERADPPKTHVTHHPISDHEATLRCWALGFYPAEITLTWQRDGEDQTQDTELVETRPAGDRTFQKWAAVVVPSGEEQRYTCHVQHEGLPKPLTLRWEPSSQSTVPIVGIVAGLAVLAVVVIGAVVAAVMCRRKSSGGKGGSYSQAACSDSAQGSDVSLTAEFGSGSGS
notes: also called HLA-B alone; not shown: triple-FLAG tag
B3: HLA-A (full length, 3× FLAG tagged, expressed in HEK293 cells) (receptor)
MHC heavy: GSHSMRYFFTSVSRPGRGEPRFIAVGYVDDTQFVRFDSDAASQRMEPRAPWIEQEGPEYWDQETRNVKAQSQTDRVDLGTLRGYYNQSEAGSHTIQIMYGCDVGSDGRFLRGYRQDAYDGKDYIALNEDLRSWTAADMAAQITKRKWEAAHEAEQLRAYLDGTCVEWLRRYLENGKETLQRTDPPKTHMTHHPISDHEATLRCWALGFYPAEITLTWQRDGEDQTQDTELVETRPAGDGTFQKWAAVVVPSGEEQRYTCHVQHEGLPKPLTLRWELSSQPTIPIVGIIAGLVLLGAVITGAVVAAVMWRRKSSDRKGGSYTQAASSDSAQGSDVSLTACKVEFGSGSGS
notes: also called HLA-A alone; not shown: triple-FLAG tag

Sequence of GST-Epx2 (P08515 1-218, tags or fused parts left off): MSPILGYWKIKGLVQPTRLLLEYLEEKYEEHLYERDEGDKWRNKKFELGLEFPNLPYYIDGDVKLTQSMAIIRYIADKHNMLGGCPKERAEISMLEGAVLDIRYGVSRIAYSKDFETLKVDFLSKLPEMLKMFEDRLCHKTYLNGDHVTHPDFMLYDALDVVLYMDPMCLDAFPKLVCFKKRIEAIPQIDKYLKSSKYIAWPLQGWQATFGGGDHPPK

The first experiment has as its target GST-Epx2 (E. faecium, UniProt P08515 1-218 = GST). In words: GST pull-down from lysates of transfected HEK293 cells, anti-FLAG immunoblot. (In general: In western blotting, separated proteins are transferred to a membrane and probed.)
B1: the binding result is reported as “no binding”.
Turning to B2, the binding result is on record as “no binding”.
Still for that read-out and setting: with B3 the entry was “no binding”.

The target of a further experiment is GST-Epx3 (E. faecalis, UniProt P08515 1-218 = GST). Described as above.
Sequence of GST-Epx3 (P08515 1-218, tags or fused parts left off): as above
B1: the binding result is given as “no binding”.
Turning to B2, the binding result is recorded as “no binding”.
As to B3, the binding result was “no binding”.
